Results from PMC11239689.

Biological target: Toll-like receptor 2 (TLR2), endogenous in HT29 cells (human (endogenous in HT29)) (UniProt O60603)
Chain of UniProt O60603 (O60603 21-784): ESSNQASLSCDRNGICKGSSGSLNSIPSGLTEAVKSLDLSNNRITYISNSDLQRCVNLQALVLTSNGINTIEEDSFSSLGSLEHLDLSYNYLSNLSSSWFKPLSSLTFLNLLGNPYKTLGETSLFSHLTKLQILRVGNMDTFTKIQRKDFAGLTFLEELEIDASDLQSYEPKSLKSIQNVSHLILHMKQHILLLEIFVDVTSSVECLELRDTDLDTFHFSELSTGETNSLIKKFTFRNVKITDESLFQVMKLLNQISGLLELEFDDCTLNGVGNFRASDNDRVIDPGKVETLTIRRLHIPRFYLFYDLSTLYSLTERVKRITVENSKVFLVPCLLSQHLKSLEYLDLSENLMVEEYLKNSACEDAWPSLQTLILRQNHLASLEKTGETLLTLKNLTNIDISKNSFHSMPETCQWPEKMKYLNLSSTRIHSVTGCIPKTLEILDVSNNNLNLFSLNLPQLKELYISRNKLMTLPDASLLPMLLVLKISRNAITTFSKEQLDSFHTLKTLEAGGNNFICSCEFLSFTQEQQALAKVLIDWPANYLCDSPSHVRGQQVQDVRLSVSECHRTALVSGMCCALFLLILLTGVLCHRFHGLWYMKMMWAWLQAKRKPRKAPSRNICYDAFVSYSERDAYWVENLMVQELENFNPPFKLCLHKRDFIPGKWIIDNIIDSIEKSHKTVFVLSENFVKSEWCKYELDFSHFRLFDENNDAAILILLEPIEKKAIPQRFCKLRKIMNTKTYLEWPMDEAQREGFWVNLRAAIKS

“GbpA domain 4, purified recombinant (domain or fragment)” gave an IL-8 secreted by HT29 cells treated with 250 ng GbpA 4 for 8 h (sandwich ELISA) of 443 pg/mL.
